Sequences and labels used below:
T1: hu-CD74 antigen (R&D SYSTEMS catalog #3590-CD-050) (human, UniProt P04233-2 73-232, limits assumed)
T1 construct: Bought antigen; also called rhCD74; human CD74
T1 sequence (looked up): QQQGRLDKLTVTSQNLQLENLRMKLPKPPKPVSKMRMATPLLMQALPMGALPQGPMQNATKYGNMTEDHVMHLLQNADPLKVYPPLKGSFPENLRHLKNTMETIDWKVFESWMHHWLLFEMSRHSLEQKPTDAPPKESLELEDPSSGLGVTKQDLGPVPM

B1: HC 1251_A06 (wt)/LC 1337_A07 (wt) (antibody, human IgG1, kappa, V domains shown)
VH: QVQLVESGGGVVQPGRSLRLSCAASGFDFSSYGMHWVRQAPDKGLEWVAVIWDDGSDRYYADSVKGRFTISRDNSKNTLYLQMNSLRAEDTAVYYCARGGTRVLGAIHGTDVWGQGTTVTVSS
VL: DIQMTQSPSSLSASVGDRVTITCRASQGISSWVAWYQQKPEKAPKSLIYGASRLQSGVPSRFSGSGSGTDFTLTISSLQPEDFATYYCQQYHTYPLTFGGGTKVEIKR
notes: IgG format
B2: HC 1251_B08 (g)/LC 1337_A09 (wt) (antibody, human IgG1, kappa, V domains shown)
VH: QVQLVESGGGVVQPGRSLRLSCAASGFNFSDYGMHWVRQAPGKGLEWVAVIWYDGSISYYADSVKGRFTISRDNSKNTLYLQMNSLRAEDTAVYYCARGGTVEHGAVYGTDVWGQGTTVTVSS
VL: B1 VL with S30G, V33L, G50A, S52D
notes: IgG format
B3: HC 1251_B08 (g)/LC 1275_C10 (g) (antibody, human IgG1, kappa, V domains shown)
VH: B2 VH
VL: B1 VL with L11V, I29V, V33L, E41G, S46L, G50S, S52R, R53Y, H92N, T93L
notes: IgG format
B4: HC 1251_B08 (g)/LC 1275_C10 (wt) (antibody, human IgG1, kappa, V domains shown)
VH: B2 VH
VL: B1 VL with I29V, V33L, G50S, S52R, R53Y, H92N, T93L
notes: IgG format
B5: HC 1251_B08 (wt)/LC 1337_A07 (wt) (antibody, human IgG1, kappa, V domains shown)
VH: B2 VH with G42D, T117A
VL: B1 VL
notes: IgG format
B6: HC 1251_A06 (g)/LC 1337_A07 (wt) (antibody, human IgG1, kappa, V domains shown)
VH: B1 VH with D42G
VL: B1 VL
notes: IgG format
B7: HC 1251_B08 (g)/LC 1337_A10 (wt) (antibody, human IgG1, kappa, V domains shown)
VH: B2 VH
VL: B1 VL with A51S, H92N
notes: IgG format
B8: HC 1251_B08 (wt)/LC 1337_A10 (g) (antibody, human IgG1, kappa, V domains shown)
VH: B2 VH with G42D, T117A
VL: B1 VL with L11V, E41G, S46L, A51S, H92N
notes: IgG format
B9: HC 1251_B08 (wt)/LC 1275_C10 (wt) (antibody, human IgG1, kappa, V domains shown)
VH: B2 VH with G42D, T117A
VL: B1 VL with I29V, V33L, G50S, S52R, R53Y, H92N, T93L
notes: IgG format
B10: HC 1251_A06 (g)/LC 1337_A09 (wt) (antibody, human IgG1, kappa, V domains shown)
VH: B1 VH with D42G
VL: B1 VL with S30G, V33L, G50A, S52D
notes: IgG format
B11: HC 1251_A06 (g)/LC 1337_A10 (g) (antibody, human IgG1, kappa, V domains shown)
VH: B1 VH with D42G
VL: B1 VL with L11V, E41G, S46L, A51S, H92N
notes: IgG format
B12: HC 1251_A06 (g)/LC 1337_A10 (wt) (antibody, human IgG1, kappa, V domains shown)
VH: B1 VH with D42G
VL: B1 VL with A51S, H92N
notes: IgG format
B13: HC 1251_B08 (wt)/LC 1337_A09 (g) (antibody, human IgG1, kappa, V domains shown)
VH: B2 VH with G42D, T117A
VL: B1 VL with L11V, S30G, V33L, E41G, S46L, G50A, S52D
notes: IgG format
B14: HC 1251_A06 (wt)/LC 1337_A09 (g) (antibody, human IgG1, kappa, V domains shown)
VH: B1 VH
VL: B1 VL with L11V, S30G, V33L, E41G, S46L, G50A, S52D
notes: IgG format
B15: HC 1251_A06 (g)/LC 1337_A09 (g) (antibody, human IgG1, kappa, V domains shown)
VH: B1 VH with D42G
VL: B1 VL with L11V, S30G, V33L, E41G, S46L, G50A, S52D
notes: IgG format
B16: HC 1251_A06 (wt)/LC 1337_A09 (wt) (antibody, human IgG1, kappa, V domains shown)
VH: B1 VH
VL: B1 VL with S30G, V33L, G50A, S52D
notes: IgG format
B17: HC 1251_A06 (wt)/LC 1337_A10 (g) (antibody, human IgG1, kappa, V domains shown)
VH: B1 VH
VL: B1 VL with L11V, E41G, S46L, A51S, H92N
notes: IgG format
B18: HC 1251_A06 (wt)/LC 1275_C10 (g) (antibody, human IgG1, kappa, V domains shown)
VH: B1 VH
VL: B1 VL with L11V, I29V, V33L, E41G, S46L, G50S, S52R, R53Y, H92N, T93L
notes: IgG format
B19: HC 1251_A06 (wt)/LC 1337_A07 (g) (antibody, human IgG1, kappa, V domains shown)
VH: B1 VH
VL: B1 VL with L11V, E41G, S46L
notes: IgG format
B20: HC 1251_A06 (g)/LC 1275_C10 (wt) (antibody, human IgG1, kappa, V domains shown)
VH: B1 VH with D42G
VL: B1 VL with I29V, V33L, G50S, S52R, R53Y, H92N, T93L
notes: IgG format
B21: HC 1251_A06 (g)/LC 1275_C10 (g) (antibody, human IgG1, kappa, V domains shown)
VH: B1 VH with D42G
VL: B1 VL with L11V, I29V, V33L, E41G, S46L, G50S, S52R, R53Y, H92N, T93L
notes: IgG format
B22: HC 1251_A06 (wt)/LC 1337_A10 (wt) (antibody, human IgG1, kappa, V domains shown)
VH: B1 VH
VL: B1 VL with A51S, H92N
notes: IgG format
B23: HC 1251_A06 (g)/LC 1337_A07 (g) (antibody, human IgG1, kappa, V domains shown)
VH: B1 VH with D42G
VL: B1 VL with L11V, E41G, S46L
notes: IgG format
B24: HC 1251_A06 (wt)/LC 1275_C10 (wt) (antibody, human IgG1, kappa)
heavy: not shown
light: MDIQMTQSPSSLSASVGDRVTITCRASQGVSSWLAWYQQKPEKAPKSLIYSARYLQSGVPSRFSGSGSGTDFTLTISSLQPEDFATYYCQQYNLYPLTFGGGTKVEIKRTVAAPSVFIFPPSDEQLKSGTASVVCLLNNFYPREAKVQWKVDNALQSGNSQESVTEQDSKDSTYSLSSTLTLSKADYEKHKVYACEVTHQGLSSPVTKSFNRGEC
notes: IgG format
B25: HC 1251_B08 (g)/LC 1337_A07 (wt) (antibody, human IgG1, kappa, V domains shown)
VH: B2 VH
VL: B1 VL
notes: IgG format
B26: HC 1251_B08 (wt)/LC 1337_A10 (wt) (antibody, human IgG1, kappa, V domains shown)
VH: B2 VH with G42D, T117A
VL: B1 VL with A51S, H92N
notes: IgG format
B27: HC 1251_B08 (wt)/LC 1337_A07 (g) (antibody, human IgG1, kappa, V domains shown)
VH: B2 VH with G42D, T117A
VL: B1 VL with L11V, E41G, S46L
notes: IgG format
B28: HC 1251_B08 (wt)/LC 1275_C10 (g) (antibody, human IgG1, kappa, V domains shown)
VH: B2 VH with G42D, T117A
VL: B1 VL with L11V, I29V, V33L, E41G, S46L, G50S, S52R, R53Y, H92N, T93L
notes: IgG format
B29: HC 1251_B08 (wt)/LC 1337_A09 (wt) (antibody, human IgG1, kappa, V domains shown)
VH: B2 VH with G42D, T117A
VL: B1 VL with S30G, V33L, G50A, S52D
notes: IgG format

Positions count from the first letter of the chain named.

The target of this experiment is T1, hu-CD74 antigen (R&D SYSTEMS catalog …). The experiment is described as follows: SPR (Biacore T200), IgG captured on anti-human Fc, rhCD74 analyte. As for the experimental part:
Kinetic binding experiments were performed at 25° C. using 1×HBS-EP+buffer. Kinetic data was collected by injecting test and control antibodies at concentrations of 10, 5 and 2.5 μg/mL for 12 s at a flow rate of 10 μl/min on flow cells 2, 3 and 4 respectively, followed by a buffer wash for 30 s at the same flow rate. Kinetic characterization of antibody samples was carried out with 8 concentrations of a 1:2 dilution series of rhCD74 antigen (R&D Systems) and 2 injections of 0 nM antigen (buffer only). […] Between each ligand capture and analyte binding cycle, regeneration was carried out using 2 injections of 3M MgCl₂ for 30 seconds at 30 μL/min, followed by a 30 second buffer wash step.
Background: In SPR one partner is held on a chip, and binding of the other changes the refractive index at the surface.
The term Kd denotes a measure of binding affinity in units of concentration. Low values mean tighter binding, high ones weaker binding. Usually koff stands for the first-order rate constant of dissociation. A low value points to a long-lived complex. Usually kon stands for a measure of how fast the partners come together. High values mean fast association, low ones slow association. Take B1: the Kd was determined as 0.168 nM, the koff came out at 0.0001 s⁻¹ and the kon is 598000 M⁻¹ s⁻¹.
The corresponding values for B2 are 0.64 nM, 0.000106 s⁻¹ and 166000 M⁻¹ s⁻¹.
B3 gave a Kd of 0.332 nM, a koff of 0.000102 s⁻¹ and a kon of 306000 M⁻¹ s⁻¹.
Regarding B4, the affinity, expressed as Kd, was 0.862 nM; the koff turned out to be 0.000155 s⁻¹; the kon was 180000 M⁻¹ s⁻¹.
B5 showed a Kd of 0.211 nM, a koff of 8.01e-05 s⁻¹ and a kon of 379000 M⁻¹ s⁻¹.
The corresponding values for B6 are 0.166 nM, 9.4e-05 s⁻¹ and 568000 M⁻¹ s⁻¹.
With B7, the Kd worked out at 0.385 nM, the koff was 0.00012 s⁻¹ and the kon came out at 312000 M⁻¹ s⁻¹.
In turn, B8 registered a Kd of 0.957 nM, an off-rate (koff) of 0.000183 s⁻¹ and a kon of 191000 M⁻¹ s⁻¹.
For B9, in that order: 0.191 nM, 0.000119 s⁻¹ and 623000 M⁻¹ s⁻¹.
For the molecule B10, the Kd was found to be 0.189 nM, the koff is 8.63e-05 s⁻¹ and the kon was 457000 M⁻¹ s⁻¹.
For B11, in that order: 0.389 nM, 0.000148 s⁻¹ and 380000 M⁻¹ s⁻¹.
On to B12, for which binding was put at a Kd of 0.188 nM, the koff amounted to 9.03e-05 s⁻¹ and the kon worked out at 479000 M⁻¹ s⁻¹.
The corresponding values for B13 are 0.347 nM, 0.000115 s⁻¹ and 332000 M⁻¹ s⁻¹.
The corresponding values for B14 are 0.18 nM, 0.00011 s⁻¹ and 610000 M⁻¹ s⁻¹.
In turn, B15 came in with a Kd of 0.131 nM, a koff of 7.26e-05 s⁻¹ and a kon of 552000 M⁻¹ s⁻¹.
For B16, in that order: 0.156 nM, 9.19e-05 s⁻¹ and 588000 M⁻¹ s⁻¹.
For B17, in that order: 0.411 nM, 0.000235 s⁻¹ and 571000 M⁻¹ s⁻¹.
The molecule B18 displayed a dissociation constant Kd of 0.348 nM, a koff of 0.000166 s⁻¹ and a kon of 478000 M⁻¹ s⁻¹.
In turn, B19 displayed a Kd of 0.205 nM, a koff of 0.000136 s⁻¹ and a kon of 660000 M⁻¹ s⁻¹.
Take B20: binding was characterised by a dissociation constant (Kd) of 0.341 nM, the koff was 0.000177 s⁻¹ and the kon worked out at 520000 M⁻¹ s⁻¹.
With B21, the Kd was 0.209 nM, the koff came out at 0.000148 s⁻¹ and the kon turned out to be 705000 M⁻¹ s⁻¹.
The corresponding values for B22 are 0.205 nM, 0.000174 s⁻¹ and 847000 M⁻¹ s⁻¹.
As for B23, binding was characterised by a dissociation constant (Kd) of 0.168 nM, the off-rate (koff) amounted to 7.1e-05 s⁻¹ and the kon was found to be 424000 M⁻¹ s⁻¹.
As for B24, the affinity, expressed as Kd, was 0.245 nM; the koff was 0.00016 s⁻¹; the on-rate constant (kon) amounted to 654000 M⁻¹ s⁻¹.
For the molecule B25, the Kd worked out at 0.349 nM, the koff came to 9.23e-05 s⁻¹ and the kon worked out at 265000 M⁻¹ s⁻¹.
For B26, in that order: 0.235 nM, 0.000115 s⁻¹ and 491000 M⁻¹ s⁻¹.
Molecule B27 showed a Kd of 0.611 nM, a koff of 0.000142 s⁻¹ and a kon of 232000 M⁻¹ s⁻¹.
For B28, in that order: 0.437 nM, 0.000124 s⁻¹ and 284000 M⁻¹ s⁻¹.
B29 returned a Kd of 0.108 nM, a koff of 0.000116 s⁻¹ and a kon of 1.07e+06 M⁻¹ s⁻¹.

These data come from patent US20170253656A1 (SUTRO BIOPHARMA, published 2017).
